Measured values as given in patent US20140087995A1 (published 2014).
Numbered stars: 1 amine (or outer) side, 2 acyl side, 3 side chain; on linkers, the order of the positions; unused ones are H or OH. Bridge positions count the residues as written; N and C are the ends. Side chains are listed from the residue outwards. Ends that are not written are not given here. * marks the point of attachment. C20 diacid = O=C(O)CCCCCCCCCCCCCCCCCCC(=O)*; γGlu = O=C(O)[C@H](CCC(=O)[*:2])N[*:1]; AEEA = NCCOCCOCC(=O)O

T1: human calcitonin receptor (human, UniProt P30988 25-474)
T1 construct: whole, on cells; membranes of stably transfected BHK cells (Assay VII); also called hCTR; hCT
T1 sequence (looked up): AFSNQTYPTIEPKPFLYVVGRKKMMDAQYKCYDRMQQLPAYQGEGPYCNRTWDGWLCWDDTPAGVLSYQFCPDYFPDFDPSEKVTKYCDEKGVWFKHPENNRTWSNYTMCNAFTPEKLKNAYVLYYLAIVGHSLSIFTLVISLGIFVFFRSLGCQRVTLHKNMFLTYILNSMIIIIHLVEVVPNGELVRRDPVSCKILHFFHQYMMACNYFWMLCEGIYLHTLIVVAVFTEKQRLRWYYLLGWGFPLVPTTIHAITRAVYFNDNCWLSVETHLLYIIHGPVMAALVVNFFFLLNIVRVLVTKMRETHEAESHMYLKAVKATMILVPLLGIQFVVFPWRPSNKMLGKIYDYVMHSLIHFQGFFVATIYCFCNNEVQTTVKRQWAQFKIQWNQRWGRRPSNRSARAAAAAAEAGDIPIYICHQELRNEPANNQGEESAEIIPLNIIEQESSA

T2: rat calcitonin receptor (rat, UniProt P32214 25-516)
T2 construct: whole, on cells; membranes of transiently transfected BHK tk'ts 13 cells (Assay VIII); also called rCTR; rat calcitonin (a) receptor
T2 sequence (looked up): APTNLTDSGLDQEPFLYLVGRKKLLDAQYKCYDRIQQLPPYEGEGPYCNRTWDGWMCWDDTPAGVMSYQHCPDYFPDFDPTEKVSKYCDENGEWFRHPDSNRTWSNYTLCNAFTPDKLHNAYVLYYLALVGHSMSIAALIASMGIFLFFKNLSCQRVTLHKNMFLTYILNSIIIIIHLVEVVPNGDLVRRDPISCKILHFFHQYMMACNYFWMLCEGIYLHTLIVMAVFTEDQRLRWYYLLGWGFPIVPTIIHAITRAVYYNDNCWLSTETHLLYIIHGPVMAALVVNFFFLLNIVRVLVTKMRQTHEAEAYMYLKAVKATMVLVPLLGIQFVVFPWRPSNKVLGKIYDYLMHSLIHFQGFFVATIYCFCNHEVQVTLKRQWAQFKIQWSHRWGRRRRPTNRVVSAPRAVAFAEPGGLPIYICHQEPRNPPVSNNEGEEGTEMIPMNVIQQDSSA

T3: rat amylin receptor (rat calcitonin receptor + rat RAMP 3) (rat, UniProt P32214 25-516; Q9JJ73 23-147)
T3 construct: whole, on cells; membranes of transiently transfected BHK tk'ts 13 cells (Assay VI); also called rAmylin-R; rat amylin 3(a) receptor
T3 sequence (looked up) 1: T2 sequence (looked up)
T3 sequence (looked up) 2: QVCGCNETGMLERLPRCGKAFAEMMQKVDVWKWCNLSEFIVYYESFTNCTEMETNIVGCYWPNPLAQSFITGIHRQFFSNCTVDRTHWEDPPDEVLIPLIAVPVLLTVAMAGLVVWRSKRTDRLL

B1: N^α1-[(4S)-4-carboxy-4-(19-carboxynonadecanoylamino)butanoyl]-[Glu14,Arg17,Pro21,Pro25,Pro28,Pro29]-h-amylin (peptide)
peptide: {C20 diacid-γGlu}-KCNTATCATQRLAEFLRHSSPNFGPILPPTNVGSNTY-NH2
modifications: disulfide 2-7 (inferred)
notes: analogue of human amylin; also called compound 6
B2: N^ε-[(4S)-4-carboxy-4-(19-carboxynonadecanoylamino)butanoyl]Lys[Arg1,Arg17,Pro21,Pro27,His35]-h-amylin (peptide)
peptide: K([γGlu-C20 diacid])RCNTATCATQRLANFLRHSSPNFGAIPSSTNVGSHTY-NH2
modifications: disulfide 3-8 (inferred)
notes: analogue of human amylin extended by Lys at the N-terminus; also called compound 44
B3: N^-1-[(4S)-4-carboxy-4-(19-carboxynonadecanoylamino)butanoyl]-Gly[Arg1,Arg17,Pro21,Pro27,His35]-h-amylin (peptide)
peptide: {C20 diacid-γGlu}-GRCNTATCATQRLANFLRHSSPNFGAIPSSTNVGSHTY-NH2
modifications: disulfide 3-8 (inferred)
notes: analogue of human amylin extended by Gly at the N-terminus; also called compound 47
B4: N^-1-[(4S)-4-carboxy-4-(19-carboxynonadecanoylamino)butanoyl]-Gly[Arg1,Arg17,Pro21,Pro27]-h-amylin (peptide)
peptide: {C20 diacid-γGlu}-GRCNTATCATQRLANFLRHSSPNFGAIPSSTNVGSNTY-NH2
modifications: disulfide 3-8 (inferred)
notes: analogue of human amylin extended by Gly at the N-terminus; also called compound 46
B5: N^ε1-[(4S)-4-carboxy-4-[[(4S)-4-carboxy-4-(19-carboxynonadecanoylamino)butanoyl]amino]butanoyl]-[Asp14,Arg17,Pro21,Pro26,Asp35]-h-amylin (peptide)
peptide: K([γGlu-γGlu-C20 diacid])CNTATCATQRLADFLRHSSPNFGAPLSSTNVGSDTY-NH2
modifications: disulfide 2-7 (inferred)
notes: analogue of human amylin; also called compound 1
B6: N^ε1-[(4S)-4-carboxy-4-[[(4S)-4-carboxy-4-(19-carboxynonadecanoylamino)butanoyl]amino]butanoyl]-[Asp14,Arg17,Pro21,Pro27,Asp35]-h-amylin (peptide)
peptide: K([γGlu-γGlu-C20 diacid])CNTATCATQRLADFLRHSSPNFGAIPSSTNVGSDTY-NH2
modifications: disulfide 2-7 (inferred)
notes: analogue of human amylin; also called compound 2
B7: N^ε1-[(4S)-4-carboxy-4-[[(4S)-4-carboxy-4-(19-carboxynonadecanoylamino)butanoyl]amino]butanoyl]-[Asp14,Arg17,Pro22,Pro26,Asp35]-h-amylin (peptide)
peptide: K([γGlu-γGlu-C20 diacid])CNTATCATQRLADFLRHSSNPFGAPLSSTNVGSDTY-NH2
modifications: disulfide 2-7 (inferred)
notes: analogue of human amylin; also called compound 3
B8: N{Alpha-1}-[(4S)-4-carboxy-4-(19-carboxynonadecanoylamino)butanoyl]-[Glu14,Arg17,Pro21,Pro27,Lys34]-h-amylin (peptide)
peptide: {C20 diacid-γGlu}-KCNTATCATQRLAEFLRHSSPNFGAIPSSTNVGKNTY-NH2
modifications: disulfide 2-7 (inferred)
notes: analogue of human amylin; also called compound 36
B9: N^ε1-[2-[2-[2-[[(4S)-4-carboxy-4-(19-carboxynonadecanoylamino)butanoyl]amino]ethoxy]ethoxy]acetyl]-[Arg17,Pro21,Pro27]-h-amylin (peptide)
peptide: K([AEEA-γGlu-C20 diacid])CNTATCATQRLANFLRHSSPNFGAIPSSTNVGSNTY-NH2
modifications: disulfide 2-7 (inferred)
notes: analogue of human amylin; also called compound 41
B10: N^α1-[2-[2-[2-[[2-[2-[2-[[(4S)-4-carboxy-4-(19-carboxynonadecanoylamino)butanoyl]amino]ethoxy]ethoxy]acetyl]amino]ethoxy]ethoxy]acetyl]-[Arg17,Pro21,Pro27]-h-am … (peptide)
peptide: KCNTATCATQRLANFLRHSSPNFGAIPSSTNVGSNTY
modifications: C20 diacid-gGlu-2xOEG on the alpha amino group of the N-terminal residue (Lys 1); disulfide bridge between the two Cys residues; C-terminal amide
notes: analogue of human amylin; also called compound 24
B11: N^ε1-19-carboxynonadecanoyl-[Arg17,Pro21,Pro27]-h-amylin (peptide)
peptide: K(C20 diacid)CNTATCATQRLANFLRHSSPNFGAIPSSTNVGSNTY-NH2
modifications: disulfide 2-7 (inferred)
notes: analogue of human amylin; also called compound 42
B12: N^ε1-[2-[2-[2-(19-carboxynonadecanoylamino)ethoxy]ethoxy]acetyl]-[Arg17,Pro21,Pro27]-h-amylin (peptide)
peptide: K([AEEA-C20 diacid])CNTATCATQRLANFLRHSSPNFGAIPSSTNVGSNTY-NH2
modifications: disulfide 2-7 (inferred)
notes: analogue of human amylin; also called compound 43

The binders below were run against T1, human calcitonin receptor (assay: IC50 on human calcitonin receptor divided by IC50 on human amylin receptor (SPA competition)).
How it was run: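 Competition binding by SPA with cell membranes (35 ng/μL) and SPA beads in 50 mM Hepes pH 7.4 with 1 mM CaCl2, 5 mM MgCl2, 0.1% OA and 0.02% Tween20. Incubated 120 min at 25 °C with shaking, then counted.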
B1 was tested, and the “Ratio hCT/hAmylin binding” value was 20. B2 was tested, and the “Ratio hCT/hAmylin binding” value was 17.7. With B3 the “Ratio hCT/hAmylin binding” value was 44.9. For B4, the “Ratio hCT/hAmylin binding” value was 48.9. With B5 the “Ratio hCT/hAmylin binding” value was 27.6. In the case of B6, the “Ratio hCT/hAmylin binding” value is reported as 47.5. With B7 the “Ratio hCT/hAmylin binding” value was 17.3. With B8 the “Ratio hCT/hAmylin binding” value was 15.7. B9 was tested, and the “Ratio hCT/hAmylin binding” value was 49.9. In the case of B10, the “Ratio hCT/hAmylin binding” value is reported as 90. In the case of B11, the “Ratio hCT/hAmylin binding” value is reported as 30.7. For B12, the “Ratio hCT/hAmylin binding” value was 34.7.

What follows are binders tested against T2, rat calcitonin receptor (assay: SPA competition with 125I-calcitonin, membranes of BHK cells with rat calcitonin receptor (Assay VIII)).
B1 was tested, and the IC50 was 51.5 nM. For B2, the IC50 was 19.6 nM. Binder B3 has an IC50 of 17.1 nM. B4 was tested, and the IC50 was 46.8 nM. With B5 the IC50 was 135 nM. Work on B6 yielded an IC50 of 108 nM. For B7, the IC50 was 16.7 nM. In the case of B8, the IC50 is reported as 60.1 nM. With B9 the IC50 was 74.1 nM. Binder B10 has an IC50 of 350 nM. B11 gave an IC50 of 15.3 nM. Work on B12 yielded an IC50 of 7.6 nM.

Each binder was assayed against T2, rat calcitonin receptor (assay: IC50 on rat calcitonin receptor divided by IC50 on rat amylin receptor (SPA competition)).
B1 was tested, and the “Ratio rCT/rAmylin binding” value was 21.7. With B2 the “Ratio rCT/rAmylin binding” value was 53.3. For B3, the “Ratio rCT/rAmylin binding” value was 84.3. For B4, the “Ratio rCT/rAmylin binding” value was 142. In the case of B5, the “Ratio rCT/rAmylin binding” value is reported as 104. For B6, the “Ratio rCT/rAmylin binding” value was 366. With B7 the “Ratio rCT/rAmylin binding” value was 16.7. For B8, the “Ratio rCT/rAmylin binding” value was 32.4. In the case of B9, the “Ratio rCT/rAmylin binding” value is reported as 54. B10 was tested, and the “Ratio rCT/rAmylin binding” value was 116. B11 was tested, and the “Ratio rCT/rAmylin binding” value was 25.4. In the case of B12, the “Ratio rCT/rAmylin binding” value is reported as 69.1.

These binders were tested against T3, rat amylin receptor (rat calcitonin …) (assay: SPA competition with 125I-rat amylin, membranes of BHK cells with rat calcitonin receptor + rat RAMP3 (Assay VI)).
B1 was tested, and the IC50 was 2.37 nM. Binder B2 has an IC50 of 0.369 nM. With B3 the IC50 was 0.203 nM. Binder B4 has an IC50 of 0.33 nM. B5 gave an IC50 of 1.3 nM. B6 gave an IC50 of 0.295 nM. For B7, the IC50 was 1 nM. Work on B8 yielded an IC50 of 1.86 nM. For B9, the IC50 was 1.37 nM. For B10, the IC50 was 3.01 nM. For B11, the IC50 was 0.603 nM. Binder B12 has an IC50 of 0.11 nM.
